Test system: Bacillus subtilis
Assay: cleaved RNA product abundance (RNA/gDNA barcode ratio) relative to median wild-type variant (ratio to wild type); higher = more accumulation of the downstream cleavage product
Conditions: cleavage site: cggR-gapA (positions -7 to +36 mutated)
Summary of the method: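 B. subtilis strains with chromosomally integrated reporter mRNAs (truncated aprE or tetM) holding barcoded, mutagenized RNase Y cleavage-site windows grew in LB at 37°C from OD600 0.0003 to 0.3. Cleaved product abundance is each construct's RNA:gDNA barcode ratio, scaled to the median construct with the unmutated site. It came from sequencing barcodes of gel-selected, reverse-transcribed cleaved RNA and of genomic DNA.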

[1] = experiment (reporter, strain, medium): exp 4a: truncated aprE reporter, strain BJT201 with 2% xylose (RNase J1 expressed)
[2] = experiment (reporter, strain, medium): exp 2b: truncated aprE reporter, strain BJT200
[3] = experiment (reporter, strain, medium): exp 6: tetM reporter, strain 168

Sequence	cleaved RNA product abundance [1]	cleaved RNA product abundance [2]	cleaved RNA product abundance [3]
ACAGACGAAGGAGCCGCCAAGAAGTTATTAAGGGATTAATAATCCCTCAATATAAATATCTCTCACTTATTTAAA	0.726		
ACAGACGAAGGAGCCGCCAAGAAGTTATTAAGGTATGAATAATCCCTCAATATAAATATCTCTCACTTATTTAAA	0.103		
ACAGACGAAGGAGCCGCCAAGAAGTTATTAAGTGATGAATAATCCCTCAATATAAATATCTCTCACTTATTTAAA	0.146		
ACAGACGAAGGAGCCGCCAAGAAGTTATTCAGGGATGAATAATCCCTCAATATAAATATCTCTCACTTATTTAAA	0.506		
ACAGACGAAGGAGCCGCCAAGATGTTATTAAGGGATGAATAATCCCTCAATATAAATATCTCTCACTTATTTAAA	0.894		
ACAGACGAAGGAGCCGCCAATAAGTTATTAAGGGATGAATAATCCCTCAATATAAATATCTCTCACTTATTTAAA	0.812		
ACAGACGAAGGAGCCGCGAAGAACTTATTAAGGGATGAATAATCCCTCAATATAAATATCTCTCACTTATTTAAA	0.252		
ACAGACGAAGGAGCCGCGAAGAAGTAATTAAGGGATGAATAATCCCTCAATATAAATATCTCTCACTTATTTAAA		0.178	
ACAGACGAAGGAGCCGCGAAGAAGTGATTAAGGGATGAATAATCCCTCAATATAAATATCTCTCACTTATTTAAA	0.347		
ACAGACGAAGGAGCCGCGAAGAAGTTAATAAGGGATGAATAATCCCTCAATATAAATATCTCTCACTTATTTAAA	0.31		
ACAGACGAAGGAGCCGCGAAGAAGTTATGAAGGGATGAATAATCCCTCAATATAAATATCTCTCACTTATTTAAA	0.248		
ACAGACGAAGGAGCCGCGAAGAAGTTATTAAAGGATGAATAATCCCTCAATATAAATATCTCTCACTTATTTAAA	0.258		
ACAGACGAAGGAGCCGCGAAGAAGTTATTAACGGATGAATAATCCCTCAATATAAATATCTCTCACTTATTTAAA	0.185	0.164	
ACAGACGAAGGAGCCGCGAAGAAGTTATTAAGAGATGAATAATCCCTCAATATAAATATCTCTCACTTATTTAAA	0.108	0.114	
ACAGACGAAGGAGCCGCGAAGAAGTTATTAAGGAATGAATAATCCCTCAATATAAATATCTCTCACTTATTTAAA			0.104
ACAGACGAAGGAGCCGCGAAGAAGTTATTAAGGCATGAATAATCCCTCAATATAAATATCTCTCACTTATTTAAA		0.0773	
ACAGACGAAGGAGCCGCGAAGAAGTTATTAAGGGATAAATAATCCCTCAATATAAATATCTCTCACTTATTTAAA	0.679		
ACAGACGAAGGAGCCGCGAAGAAGTTATTAAGGGATCAATAATCCCTCAATATAAATATCTCTCACTTATTTAAA	0.762		
ACAGACGAAGGAGCCGCGAAGAAGTTATTAAGGGATGAATAAACCCTCAATATAAATATCTCTCACTTATTTAAA	0.467		
ACAGACGAAGGAGCCGCGAAGAAGTTATTAAGGGATGAATAATACCTCAATATAAATATCTCTCACTTATTTAAA	0.117		
ACAGACGAAGGAGCCGCGAAGAAGTTATTAAGGGATGAATAATCACTCAATATAAATATCTCTCACTTATTTAAA	0.122		

Sequence	cleaved RNA product abundance [1]	cleaved RNA product abundance [2]	cleaved RNA product abundance [3]
ACAGACGAAGGAGCCGCGAAGAAGTTATTAAGGGATGAATAATCCCACAATATAAATATCTCTCACTTATTTAAA	0.227	0.17	
ACAGACGAAGGAGCCGCGAAGAAGTTATTAAGGGATGAATAATCCCTCAAAATAAATATCTCTCACTTATTTAAA	0.319		
ACAGACGAAGGAGCCGCGAAGAAGTTATTAAGGGATGAATAATCCCTCAATATAAATAACTCTCACTTATTTAAA	0.969	1.05	
ACAGACGAAGGAGCCGCGAAGAAGTTATTAAGGGATGAATAATCCCTCAATATAAATATCTCTCACTTATTTAAA	0.87	0.919	0.885
ACAGACGAAGGAGCCGCGAAGAAGTTATTAAGGGATGAATAATCCGTCAATATAAATATCTCTCACTTATTTAAA		0.145	
ACAGACGAAGGAGCCGCGAAGAAGTTATTAAGGGATGAATAATCGCTCAATATAAATATCTCTCACTTATTTAAA	0.134		
ACAGACGAAGGAGCCGCGAAGAAGTTATTAAGGGATGAATAATCTCTCAATATAAATATCTCTCACTTATTTAAA	0.671		
ACAGACGAAGGAGCCGCGAAGAAGTTATTAAGGGATGAATAATTCCTCAATATAAATATCTCTCACTTATTTAAA	0.684		
ACAGACGAAGGAGCCGCGAAGAAGTTATTAAGGGATGAATACTCCCTCAATATAAATATCTCTCACTTATTTAAA	0.528		
ACAGACGAAGGAGCCGCGAAGAAGTTATTAAGGGATGAATTATCCCTCAATATAAATATCTCTCACTTATTTAAA	0.548		
ACAGACGAAGGAGCCGCGAAGAAGTTATTAAGGGATTAATAATCCCTCAATATAAATATCTCTCACTTATTTAAA	1.19		
ACAGACGAAGGAGCCGCGAAGAAGTTATTAAGGTATGAATAATCCCTCAATATAAATATCTCTCACTTATTTAAA	0.143	0.117	
ACAGACGAAGGAGCCGCGAAGAAGTTATTAATGGATGAATAATCCCTCAATATAAATATCTCTCACTTATTTAAA	0.214		
ACAGACGAAGGAGCCGCGAAGAAGTTATTATGGGATGAATAATCCCTCAATATAAATATCTCTCACTTATTTAAA	0.357		
ACAGACGAAGGAGCCGCGAAGAAGTTATTTAGGGATGAATAATCCCTCAATATAAATATCTCTCACTTATTTAAA		0.572	
ACAGACGAAGGAGCCGCGAAGAAGTTTTTAAGGGATGAATAATCCCTCAATATAAATATCTCTCACTTATTTAAA	0.418		
ACAGACGAAGGAGCCGCGAAGAATTTATTAAGGGATGAATAATCCCTCAATATAAATATCTCTCACTTATTTAAA	0.561		
ACAGACGAAGGAGCCGCGAAGTAGTTATTAAGGGATGAATAATCCCTCAATATAAATATCTCTCACTTATTTAAA	1.29		
ACAGACGAAGGAGCCGCGAATAAGTTATTAAGGGATGAATAATCCCTCAATATAAATATCTCTCACTTATTTAAA	1.47	1.19	
ACAGACGAAGGAGCCGCTAAAAAGTTATTAAGGGATGAATAATCCCTCAATATAAATATCTCTCACTTATTTAAA	1.1		
ACAGACGAAGGAGCCGCTAACAAGTTATTAAAGGATGAATAATCCCTCAATATAAATATCTCTCACTTATTTAAA		0.111	

Sequence	cleaved RNA product abundance [1]	cleaved RNA product abundance [2]	cleaved RNA product abundance [3]
ACAGACGAAGGAGCCGCTAAGAAATTATTAAGGGATGAATAATCCCTCAATATAAATATCTCTCACTTATTTAAA		0.556	
ACAGACGAAGGAGCCGCTAAGAAGATATTAAGGGATGAATAATCCCTCAATATAAATATCTCTCACTTATTTAAA		0.625	
ACAGACGAAGGAGCCGCTAAGAAGCTATTAAGGGATGAATAATCCCTCAATATAAATATCTCTCACTTATTTAAA	0.52		
ACAGACGAAGGAGCCGCTAAGAAGTAATTAAGGGATGAATAATCCCTCAATATAAATATCTCTCACTTATTTAAA	0.309		
ACAGACGAAGGAGCCGCTAAGAAGTGATTAAGGGATGAATAATCCCTCAATATAAATATCTCTCACTTATTTAAA	0.419		
ACAGACGAAGGAGCCGCTAAGAAGTTACTAAGGGATGAATAATCCCTCAATATAAATATCTCTCACTTATTTAAA		0.186	
ACAGACGAAGGAGCCGCTAAGAAGTTATTAAAGGATGAATAATCCCTCAATATAAATATCTCTCACTTATTTAAA	0.157		
ACAGACGAAGGAGCCGCTAAGAAGTTATTAAGAGATGAATAATCCCTCAATATAAATATCTCTCACTTATTTAAA	0.135	0.126	
ACAGACGAAGGAGCCGCTAAGAAGTTATTAAGGAATGAATAATCCCTCAATATAAATATCTCTCACTTATTTAAA	0.0845		
ACAGACGAAGGAGCCGCTAAGAAGTTATTAAGGCATGAATAATCCCTCAATATAAATATCTCTCACTTATTTAAA		0.115	
ACAGACGAAGGAGCCGCTAAGAAGTTATTAAGGGAAGAATAATCCCTCAATATAAATATCTCTCACTTATTTAAA	0.638		
ACAGACGAAGGAGCCGCTAAGAAGTTATTAAGGGACGAATAATCCCTCAATATAAATATCTCTCACTTATTTAAA	0.573		
ACAGACGAAGGAGCCGCTAAGAAGTTATTAAGGGAGGAATAATCCCTCAATATAAATATCTCTCACTTATTTAAA	0.993		
ACAGACGAAGGAGCCGCTAAGAAGTTATTAAGGGATAAATAATCCCTCAATATAAATATCTCTCACTTATTTAAA	1.15		
ACAGACGAAGGAGCCGCTAAGAAGTTATTAAGGGATGAATAAACCCTCAATATAAATATCTCTCACTTATTTAAA	0.689	0.537	
ACAGACGAAGGAGCCGCTAAGAAGTTATTAAGGGATGAATAACCCCTCAATATAAATATCTCTCACTTATTTAAA	0.437		
ACAGACGAAGGAGCCGCTAAGAAGTTATTAAGGGATGAATAATACCTCAATATAAATATCTCTCACTTATTTAAA	0.15		
ACAGACGAAGGAGCCGCTAAGAAGTTATTAAGGGATGAATAATCACTCAATATAAATATCTCTCACTTATTTAAA	0.129		
ACAGACGAAGGAGCCGCTAAGAAGTTATTAAGGGATGAATAATCCATCAATATAAATATCTCTCACTTATTTAAA	0.186		
ACAGACGAAGGAGCCGCTAAGAAGTTATTAAGGGATGAATAATCCCACAATATAAATATCTCTCACTTATTTAAA	0.252		
ACAGACGAAGGAGCCGCTAAGAAGTTATTAAGGGATGAATAATCCCCCAATATAAATATCTCTCACTTATTTAAA	0.342		

Reference: the supplement of paper PMC11780869
